This note sets out measurements from paper PMC3950671.

One data set deals with T1, PGC7 D9 (human, UniProt Q6W0C5 20-95).
T1 sequence: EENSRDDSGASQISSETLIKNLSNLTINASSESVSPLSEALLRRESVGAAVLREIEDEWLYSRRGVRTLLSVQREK
Kind of data set: EMSA. On the technique in general: Mobility shift assays separate free from complexed probe on a gel.

A further data set has as its target T2, PGC7 (Dppa3/Stella) (human, UniProt Q6W0C5 1-159).
T2 sequence: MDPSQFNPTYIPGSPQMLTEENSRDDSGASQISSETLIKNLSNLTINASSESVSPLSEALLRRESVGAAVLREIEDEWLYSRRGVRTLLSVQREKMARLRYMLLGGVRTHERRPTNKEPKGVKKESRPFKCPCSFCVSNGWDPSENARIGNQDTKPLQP
The data set can be described thus: EMSA.

B1: PGC7 motif 50-mer (dsDNA)
DNA 1: GAGTAAGATCATGCCACTGCACTTCAGCCTGGGCACAGAGTGAGGCTGGG
DNA 2: CCCAGCCTCACTCTGTGCCCAGGCTGAAGTGCAGTGGCATGATCTTACTC
In the case of B1, the binding result with PGC7 D9 and in the data set with PGC7 (Dppa3/Stella) was “binds” in each case.
